For 2 substances, stoichiometry N (His-GFP-Mis18α per His-Mis18β (4:2)) and stoichiometry N (His-Mis18α per His-GFP-Mis18β (4:2)) results are on record in paper PMC5452045.

The target of one experiment is His‐Mis18β (human) (UniProt O43482). Nature of the experiment: SEC-MALS; 100 μl of about 1 mg/ml on Superdex 200 10/300 GL; 50 mM HEPES pH 8.0, 150 mM NaCl, 1 mM TCEP; 22°C; subunit numbers from measured against calculated MW.
Another experiment concerns the target His‐GFP‐Mis18β (human) (UniProt O43482). Described as above.

Chain of His‐Mis18β (human) (O43482 whole entry): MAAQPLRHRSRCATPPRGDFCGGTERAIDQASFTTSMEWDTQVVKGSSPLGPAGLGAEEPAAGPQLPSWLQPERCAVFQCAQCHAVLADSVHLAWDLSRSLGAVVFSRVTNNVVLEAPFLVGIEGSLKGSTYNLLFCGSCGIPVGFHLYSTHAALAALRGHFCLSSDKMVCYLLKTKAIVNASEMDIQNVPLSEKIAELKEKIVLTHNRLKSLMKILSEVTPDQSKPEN
Chain of His‐GFP‐Mis18β (human) (O43482 whole entry): as above
Chain of His‐Mis18α (Q9NYP9 whole entry): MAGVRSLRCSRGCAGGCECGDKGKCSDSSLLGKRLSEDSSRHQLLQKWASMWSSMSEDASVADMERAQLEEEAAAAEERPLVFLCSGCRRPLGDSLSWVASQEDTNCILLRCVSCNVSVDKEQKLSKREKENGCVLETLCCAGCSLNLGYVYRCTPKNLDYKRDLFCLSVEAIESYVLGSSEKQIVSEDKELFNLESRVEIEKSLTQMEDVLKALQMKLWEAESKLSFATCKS
Chain of His‐GFP‐Mis18α (Q9NYP9 whole entry): as above

With “His‐GFP‐Mis18α (from UniProt Q9NYP9 1-233) (natural protein)”, the stoichiometry N (His-GFP-Mis18α per His-Mis18β (4:2)) in the experiment with His‐Mis18β (human) is 2.
Take “His‐Mis18α (from UniProt Q9NYP9 1-233) (natural protein)”: the stoichiometry N (His-Mis18α per His-GFP-Mis18β (4:2)) with His‐GFP‐Mis18β (human) is 2.
